From patent US20230280343A1

Tests used:
p300 [1] = biological target: p300 (UniProt Q09472); test: ELISA; ratio of Kd against native HIF1α
p300 [2] = biological target: p300 (UniProt Q09472); test: ELISA, total binding fit, average of three independent trials (FIG. 21)

Sequence of p300 (Q09472 323-423 limits assumed): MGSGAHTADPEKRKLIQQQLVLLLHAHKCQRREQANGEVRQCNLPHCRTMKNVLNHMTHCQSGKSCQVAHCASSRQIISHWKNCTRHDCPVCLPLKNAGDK

B1: HIF1α-MAP-1 (H-MAP-1) (designed binder)
chain: MRGSHHHHHHGSACELAATATATATATATAACGDLAPQMLRELQETNAALQDVRELLRQQVKEITFLKNTLLEIWKAAKEAAKEAAAKIEEQAKTFLDKFNGEELLRALDQVN
- fold improvement over native HIF1α (p300 [1]): 47 fold
- Kd (p300 [2]): 0.00808 nM

B2: HIF1α-MAP-2 (H-MAP-2) (designed binder)
chain: MRGSPKKKRKVGGGGSHHHHHHHHGSACELAATATATATATATAACGDLAPQMLRELQETNAALQDVRELLRQQVKEITFLKNTLLEIWKAAKEAAKEAAAKIEEQAKTFLDKFNGEELLRALDQVN
- Kd (p300 [2]): 0.0382 nM
